For this data set, the system named is T1, OMNI-68 (Gemmiger sp. An50).
T1 sequence: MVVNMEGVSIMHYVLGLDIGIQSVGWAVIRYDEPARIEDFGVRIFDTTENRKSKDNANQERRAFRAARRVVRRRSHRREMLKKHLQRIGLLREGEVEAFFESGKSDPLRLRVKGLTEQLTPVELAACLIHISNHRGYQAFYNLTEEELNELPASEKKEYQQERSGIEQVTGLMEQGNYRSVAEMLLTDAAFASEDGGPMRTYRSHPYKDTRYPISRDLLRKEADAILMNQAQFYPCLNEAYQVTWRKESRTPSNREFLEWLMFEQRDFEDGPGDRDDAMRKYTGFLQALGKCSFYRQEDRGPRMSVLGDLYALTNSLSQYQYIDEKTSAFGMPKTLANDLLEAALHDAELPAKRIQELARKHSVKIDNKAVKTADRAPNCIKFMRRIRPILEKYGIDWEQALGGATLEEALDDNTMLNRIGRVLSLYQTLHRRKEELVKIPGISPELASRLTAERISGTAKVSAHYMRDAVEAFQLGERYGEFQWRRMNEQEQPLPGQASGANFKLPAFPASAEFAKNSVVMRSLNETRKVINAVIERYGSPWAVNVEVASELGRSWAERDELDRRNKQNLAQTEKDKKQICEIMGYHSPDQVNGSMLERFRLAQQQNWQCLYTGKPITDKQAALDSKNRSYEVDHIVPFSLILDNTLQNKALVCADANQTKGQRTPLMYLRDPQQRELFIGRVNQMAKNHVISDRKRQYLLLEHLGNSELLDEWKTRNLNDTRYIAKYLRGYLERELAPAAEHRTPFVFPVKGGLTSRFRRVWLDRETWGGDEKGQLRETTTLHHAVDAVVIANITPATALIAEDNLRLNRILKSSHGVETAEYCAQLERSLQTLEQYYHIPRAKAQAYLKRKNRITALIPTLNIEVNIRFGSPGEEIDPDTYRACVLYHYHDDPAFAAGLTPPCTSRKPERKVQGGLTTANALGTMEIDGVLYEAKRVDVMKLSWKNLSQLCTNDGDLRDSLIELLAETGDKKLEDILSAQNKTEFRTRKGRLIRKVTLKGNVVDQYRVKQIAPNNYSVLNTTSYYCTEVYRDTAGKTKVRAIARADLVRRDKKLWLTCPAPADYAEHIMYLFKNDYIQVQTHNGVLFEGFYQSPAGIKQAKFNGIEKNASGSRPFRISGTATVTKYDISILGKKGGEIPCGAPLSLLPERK
Kind of data set: cleavage_in_vitro. The conditions noted are these: PAM NNNVTA; TXTL.

In turn, “GGAAGAGCAGAGCCUUGGUCUCGUUUUGGUUCUCUGAUGGGAAACAUCAGAAGUUCUAAGAUAAGGCUUUACGCCGCAGGGUAUGGUGGUAUCCCGAACAAUCCACCGUUUCAGGAAUAGCGCAGCACUGGUUUCCAGUGCUGUUUUU / GGAAGAGCAGAGCCTTGGTCTCNNNNNNNN / NNNNNNNNGAGACCAAGGCTCTGCTCTTCC” returned an activity (1-depletion score) of 0.88.

For the origin of these results see US20230383273.
